Paper PMC7196523

Experiments:
[1] = molecular target: MCPyV common T antigen (CT; shared N-terminal domain of LT and ST) peptide on HLA-A*03:01 (human); assay: IFNγ ELISA
[2] = molecular target: MCPyV large T antigen (LT) peptide on HLA-A*03:01 (human); assay: IFNγ ELISA; settings: chains alpha TRAV3*00 CDR3:beta TRBV4-3*00 CDR3
[3] = chains alpha TRAV12-1*00 CDR3:beta TRBV19*00 CDR3

B1: TCR clonotype 1 specific for MCPyV CT AA 32–40 (subject 1233) (peptide)
chain 1: CVVNGNNNDMRF
chain 2: CASSQGFGANVLTF
EC50 of peptide [1, 3]: 0.0076 µg/mL

B2: TCR clonotype 1 specific for MCPyV LT AA 95–103 (subject 1233) (peptide)
chain 1: CAVRALGNAGNMLTF
chain 2: CASSPNPQGANMDTQYF
EC50 of peptide [2]: 0.0019 µg/mL

B3: TCR clonotype 2 specific for MCPyV CT AA 32–40 (subject 1233) (peptide)
chain 1: CVVNNNNNDMRF
chain 2: CASVSGQGVSPLHF
EC50 of peptide [1, 3]: 0.0236 µg/mL

B4: TCR clonotype 3 specific for MCPyV CT AA 32–40 (subject 1233) (peptide)
chain 1: CAGARNDYKLSF
chain 2: CATSRDGAGLVNQPQHF
EC50 of peptide ([1]; chains alpha TRAV25*00 CDR3:beta TRBV15*00 CDR3): 0.0234 µg/mL
